This note sets out measurements from the Human Domainome abundance scans (Beltran et al. 2025).

± gives the uncertainty stated by the source.

B1: Mineralocorticoid receptor, residues 600 to 675; numbered along this chain, P08235 (parent)
chain: SKICLVCGDEASGCHYGVVTCGSCKVFFKRAVEGQHNYLCAGRNDCIIDKIRRKNCPACRLQKCLQAGMNLGARKS

In this series the parent is B1. As to the kind of experiment: abundance fitness (aPCA) (normalised: wild type 0, dead -1); higher = more abundant; growth selection in yeast, the domain comes from the species named. As to conditions: Homo sapiens.
For the variant SKICLVCGDEASGCHYGVVTCGWCKVFFKRAVEGQHNYLCAGRNDCIIDKIRRKNCPACRLQKCLQAGMNLGARKS [S23W], the abundance fitness is -0.193 ± 0.076.
With SKICLVCGDEASGCHYGVVTCGQCKVFFKRAVEGQHNYLCAGRNDCIIDKIRRKNCPACRLQKCLQAGMNLGARKS [S23Q] the figure was -0.013 ± 0.073; with SKICLVCGDEASGCHYGVVTCGNCKVFFKRAVEGQHNYLCAGRNDCIIDKIRRKNCPACRLQKCLQAGMNLGARKS [S23N], 0.051 ± 0.12; with SKICLVCGDEASGCHYGVVTCGTCKVFFKRAVEGQHNYLCAGRNDCIIDKIRRKNCPACRLQKCLQAGMNLGARKS [S23T], -0.164 ± 0.069.
Turning to SKICLVCGDEASGCHYGVVTCGYCKVFFKRAVEGQHNYLCAGRNDCIIDKIRRKNCPACRLQKCLQAGMNLGARKS [S23Y], the abundance fitness is -0.038 ± 0.09.
As for SKICLVCGDEASGCHYGVVTCGPCKVFFKRAVEGQHNYLCAGRNDCIIDKIRRKNCPACRLQKCLQAGMNLGARKS [S23P], the abundance fitness amounted to 0.026 ± 0.067.
Regarding SKICLVCGDEASGCHYGVVTCGSCKVYFKRAVEGQHNYLCAGRNDCIIDKIRRKNCPACRLQKCLQAGMNLGARKS [F27Y], the abundance fitness was -0.33 ± 0.093.
With SKICLVCGDEASGCHYGVVTCGSCKVHFKRAVEGQHNYLCAGRNDCIIDKIRRKNCPACRLQKCLQAGMNLGARKS [F27H], the abundance fitness is -0.427 ± 0.2.
Regarding SKICLVCGDEASGCHYGVVTCGSCKVGFKRAVEGQHNYLCAGRNDCIIDKIRRKNCPACRLQKCLQAGMNLGARKS [F27G], the abundance fitness is -0.827 ± 0.097.
Take SKICLVCGDEASGCHYGVVTCGSCKVAFKRAVEGQHNYLCAGRNDCIIDKIRRKNCPACRLQKCLQAGMNLGARKS [F27A]: the abundance fitness was -0.434 ± 0.057.
With SKICLVCGDEASGCHYGVVTCGSCKVPFKRAVEGQHNYLCAGRNDCIIDKIRRKNCPACRLQKCLQAGMNLGARKS [F27P], the abundance fitness was -0.761 ± 0.14.
With SKICLVCGDEASGCHYGVVTCGSCKVTFKRAVEGQHNYLCAGRNDCIIDKIRRKNCPACRLQKCLQAGMNLGARKS [F27T] the figure was -0.638 ± 0.11; with SKICLVCGDEASGCHYGVVTCGSCKVLFKRAVEGQHNYLCAGRNDCIIDKIRRKNCPACRLQKCLQAGMNLGARKS [F27L], -0.65 ± 0.078; with SKICLVCGDEASGCHYGVVTCGSCKVCFKRAVEGQHNYLCAGRNDCIIDKIRRKNCPACRLQKCLQAGMNLGARKS [F27C], -0.801 ± 0.2.
Regarding SKICLVCGDEASGCHYGVVTCGSCKVDFKRAVEGQHNYLCAGRNDCIIDKIRRKNCPACRLQKCLQAGMNLGARKS [F27D], the abundance fitness was -0.676 ± 0.19.
SKICLVCGDEASGCHYGVVTCGSCKVQFKRAVEGQHNYLCAGRNDCIIDKIRRKNCPACRLQKCLQAGMNLGARKS [F27Q]: the abundance fitness was -0.847 ± 0.16.
In the case of SKICLVCGDEASGCHYGVVTCGSCKVMFKRAVEGQHNYLCAGRNDCIIDKIRRKNCPACRLQKCLQAGMNLGARKS [F27M], the abundance fitness is -0.861 ± 0.19.
Take SKICLVCGDEASGCHYGVVTCGSCKVRFKRAVEGQHNYLCAGRNDCIIDKIRRKNCPACRLQKCLQAGMNLGARKS [F27R]: the abundance fitness was -1.15 ± 0.17.
Regarding SKICLVCGDEASGCHYGVVTCGSCKVIFKRAVEGQHNYLCAGRNDCIIDKIRRKNCPACRLQKCLQAGMNLGARKS [F27I], the abundance fitness was -0.608 ± 0.19.
With SKICLVCGDEASGCHYGVVTCGSCKVKFKRAVEGQHNYLCAGRNDCIIDKIRRKNCPACRLQKCLQAGMNLGARKS [F27K], the abundance fitness was -0.924 ± 0.18.
As for SKICLVCGDEASGCHYGVVTCGSCKVEFKRAVEGQHNYLCAGRNDCIIDKIRRKNCPACRLQKCLQAGMNLGARKS [F27E], the abundance fitness is -0.961 ± 0.15.
On to SKICLVCGDEASGCHYGVVTCGSCKVVFKRAVEGQHNYLCAGRNDCIIDKIRRKNCPACRLQKCLQAGMNLGARKS [F27V], for which the abundance fitness is -0.591 ± 0.082.
As to SKICLVCGDEASGCHYGVVTCGSCKVWFKRAVEGQHNYLCAGRNDCIIDKIRRKNCPACRLQKCLQAGMNLGARKS [F27W], the abundance fitness is -0.223 ± 0.055.
Consider SKICLVCGDEASGCHYGVVTCGSCKIFFKRAVEGQHNYLCAGRNDCIIDKIRRKNCPACRLQKCLQAGMNLGARKS [V26I], for which the abundance fitness came to 0.031 ± 0.13.
Consider SKICLVCGDEASGCHYGVVTCGSCKAFFKRAVEGQHNYLCAGRNDCIIDKIRRKNCPACRLQKCLQAGMNLGARKS [V26A], for which the abundance fitness was -0.044 ± 0.05.
Under SKICLVCGDEASGCHYGVVTCGSCKLFFKRAVEGQHNYLCAGRNDCIIDKIRRKNCPACRLQKCLQAGMNLGARKS [V26L] stands -0.049 ± 0.041; under SKICLVCGDEASGCHYGVVTCGSCKRFFKRAVEGQHNYLCAGRNDCIIDKIRRKNCPACRLQKCLQAGMNLGARKS [V26R], 0.033 ± 0.037.
Turning to SKICLVCGDEASGCHYGVVTCGSCKWFFKRAVEGQHNYLCAGRNDCIIDKIRRKNCPACRLQKCLQAGMNLGARKS [V26W], the abundance fitness worked out at 0.009 ± 0.046.
Take SKICLVCGDEASGCHYGVVTCGSCKEFFKRAVEGQHNYLCAGRNDCIIDKIRRKNCPACRLQKCLQAGMNLGARKS [V26E]: the abundance fitness is -0.022 ± 0.058.
Consider SKICLVCGDEASGCHYGVVTCGSCKDFFKRAVEGQHNYLCAGRNDCIIDKIRRKNCPACRLQKCLQAGMNLGARKS [V26D], for which the abundance fitness is 0.024 ± 0.068.
Regarding SKICLVCGDEASGCHYGVVTCGSCKMFFKRAVEGQHNYLCAGRNDCIIDKIRRKNCPACRLQKCLQAGMNLGARKS [V26M], the abundance fitness was -0.058 ± 0.064.
With SKICLVCGDEASGCHYGVVTCGSCKHFFKRAVEGQHNYLCAGRNDCIIDKIRRKNCPACRLQKCLQAGMNLGARKS [V26H], the abundance fitness was -0.03 ± 0.12.
Regarding SKICLVCGDEASGCHYGVVTCGSCKYFFKRAVEGQHNYLCAGRNDCIIDKIRRKNCPACRLQKCLQAGMNLGARKS [V26Y], the abundance fitness is 0.005 ± 0.095.
As for SKICLVCGDEASGCHYGVVTCGSCKKFFKRAVEGQHNYLCAGRNDCIIDKIRRKNCPACRLQKCLQAGMNLGARKS [V26K], the abundance fitness amounted to 0.008 ± 0.063.
For SKICLVCGDEASGCHYGVVTCGSCKCFFKRAVEGQHNYLCAGRNDCIIDKIRRKNCPACRLQKCLQAGMNLGARKS [V26C], the abundance fitness is -0.1 ± 0.071.
Turning to SKICLVCGDEASGCHYGVVTCGSCKQFFKRAVEGQHNYLCAGRNDCIIDKIRRKNCPACRLQKCLQAGMNLGARKS [V26Q], the abundance fitness turned out to be 0.001 ± 0.055.
